Data as given in patent publication US20240279357A1 (THERINI BIO, published 2024).
Substitutions are numbered along the chain they refer to.

B1: humanized VH5/Vκ2 antibody (antibody, IgG1, V domains shown)
VH: QVQLVQSGAEVKKPGSSVKVSCKASGYTFTSYWIHWVRQAPGQGLEWIGLIDPSDSYTNYNQKFRGRVTITRDTSTSTAYMELSSLRSEDTAVYYCASSDPTGCWGQGTTVTVSS
VL: DIVMTQAAFSNPVTPGTPASISCRSSKSLLHSSGITYLSWYLQKPGQSPQLLIYQMSNLASGVPDRFSSSGSGTDFTLKISRVEAEDVGVYYCAQNLELPLTFGQGTKLEIK
notes: IgG1; also called VH5/VK2; VH5Vk2
B2: humanized VH4/Vκ2 antibody (antibody, IgG1, V domains shown)
VH: B1 VH with R72V
VL: B1 VL
notes: IgG1; also called VH4/VK2; VH4Vk2
B3: humanized VH6/Vκ2 antibody (antibody, IgG1, V domains shown)
VH: B1 VH with R65Q
VL: B1 VL
notes: Expressed as IgG1; also called VH6/VK2; VH6Vk2
B4: humanized VH4/Vκ1 antibody (antibody, IgG1, V domains shown)
VH: B1 VH with R72V
VL: B1 VL with V13I, K79R
notes: Expressed as IgG1; also called VH4/VK1; VH4Vk1

Target: T1, P2 peptide comprising SEQ ID NO: 31 (human fibrin γ377-395) (human)
T1 construct: Bought (CPC Scientific 920712); also called human P2 peptide
T1 peptide: YSMKKTTMKIIPFNRLTIG
Assay: SPR (Biacore) multicycle, steady state fit; purified IgG captured, P2 peptide analyte
Procedure: Multicycle kinetics analysis of the variants were also performed to determine antibody affinity. […] At the start of each cycle, antibodies were loaded onto Fc2, Fc3 and Fc4 of the anti-human capture chip (GE Healthcare, Little Chalfont, UK). IgGs were captured at a flow rate of 10 μl/min to give an immobilization level (RL) of ˜1674 RU, the theoretical value to obtain a RMax of ˜50 RU. The surface was then allowed to stabilize. Kinetic data was obtained with P2 peptide as analyte using a flow rate of […] to minimize any potential mass transfer effects. Multiple repeats of a blank and a repeat of three concentrations of the analyte were programmed into the kinetic run in order to check the stability of both the surface and analyte over the kinetic cycles. […] The association phase of the peptide was monitored for 20 seconds and the dissociation phase was monitored for 25 seconds. Regeneration of the anti-human capture surface was conducted using one injection of 3.8 M magnesium chloride. The signal from the reference channel Fc1 was subtracted from that of Fc2, Fc3 and Fc4 to correct for differences in non-specific binding to a reference surface, and the data was then analyzed using steady state analysis due to the low affinity interaction to P2 peptide.

**Q.** B1 was tested. Which Kd did it give?
**A.** 122 µM

**Q.** And the “Relative KD” value?
**A.** 1.88 fold against VH0/VK0

**Q.** With B2 as the binder, how does the Kd read?
**A.** 79.2 µM

**Q.** What about the “Relative KD” value of the same binder?
**A.** 1.22 fold against VH0/VK0

**Q.** B3 was tested. Which Kd did it give?
**A.** 132 µM

**Q.** And the “Relative KD” value?
**A.** 2.04 fold against VH0/VK0

**Q.** For B4, which Kd is on record?
**A.** 86.2 µM

**Q.** What about the “Relative KD” value of the same binder?
**A.** 1.33 fold against VH0/VK0

Target: T1, P2 peptide comprising SEQ ID NO: 31 …
Assay: ELISA on coated P2 peptide
Procedure: (§1) The humanized antibodies affinity for fibrinogen, fibrin and P2 peptide were assessed by Enzyme-linked immunosorbent assays (ELISA)s (FIGS. 7-16). ELISAs for fibrinogen binding were performed using plasminogen-depleted human Fibrinogen (EMD/Calbiochem). […] IgG1-depleted Fibrinogen (FGN) in 20 mM HEPES/Saline buffer was added to each well of half of a 96-well Nunc Maxisorp™ ELISA plate. The ELISAs for fibrin binding were prepared by adding 50 mL of 20 mM HEPES/Saline buffer containing 14 mM CaCl₂, and 2 units thrombin to each well of the second half of the Nunc Maxisorp™ ELISA plate. 50 mL of 20 mg fibrinogen in 20 mM HEPES/Saline buffer were then added to a total volume of 100 mL. Plates were placed in a 37° C. incubator for 1 hour to allow fibrinogen to clot into fibrin and subsequently placed overnight into a plate dryer at 37° C. overnight. The ELISAs for P2 peptide were prepared by addition of […] of 30 mM P2 peptide in 20 mM HEPES/Saline buffer to each well of a 96-well Nunc Maxisorp™ ELISA plate. Plates were transferred to the plate dryer and dried overnight at 37° C. All ELISAs were preformed using Nunc MaxiSorp 96-well ELISA plates. Blocking was performed using 100 mL 5% BSA in DPBS are incubated at RT for 1 hour. Plates were washed 5× in DPBS containing 0.05% Tween-20 (EL406 was used for the addition of wash buffer only). 50 mL of primary antibodies was diluted in 0.5% BSA in DPBS, and the primary antibodies were added to the plates and incubated for 2 hours at 37° C. Plates were washed 5× in DPBS/Tween. 100 mL secondary antibodies were diluted in 0.5% BSA in DPBS. The secondary antibodies were then added to the plates and incubated for 1 hour at RT. Afterwards, plates were washed 5× in DPBS/Tween. 100 mL of TMB/E substrate solution was added, and the reaction was stopped after 5 minutes with 1N HCl.

**Q.** B1 was tested. Which EC50 did it give?
**A.** ~0.0781 µM

**Q.** How did the EC50 turn out when B2 was run?
**A.** ~0.0851 µM

**Q.** For B3, which EC50 is on record?
**A.** ~0.11 µM

**Q.** B4 was tested. Which EC50 did it give?
**A.** ~0.0813 µM

Target: T2, plasminogen-depleted human Fibrinogen (EMD/Calbiochem) (human, UniProt P02671 20-629; P02675 31-491; P02679 27-437, limits assumed)
T2 construct: Bought protein, IgG-depleted, coated on ELISA plates; also called FGN
T2 sequence (looked up) 1: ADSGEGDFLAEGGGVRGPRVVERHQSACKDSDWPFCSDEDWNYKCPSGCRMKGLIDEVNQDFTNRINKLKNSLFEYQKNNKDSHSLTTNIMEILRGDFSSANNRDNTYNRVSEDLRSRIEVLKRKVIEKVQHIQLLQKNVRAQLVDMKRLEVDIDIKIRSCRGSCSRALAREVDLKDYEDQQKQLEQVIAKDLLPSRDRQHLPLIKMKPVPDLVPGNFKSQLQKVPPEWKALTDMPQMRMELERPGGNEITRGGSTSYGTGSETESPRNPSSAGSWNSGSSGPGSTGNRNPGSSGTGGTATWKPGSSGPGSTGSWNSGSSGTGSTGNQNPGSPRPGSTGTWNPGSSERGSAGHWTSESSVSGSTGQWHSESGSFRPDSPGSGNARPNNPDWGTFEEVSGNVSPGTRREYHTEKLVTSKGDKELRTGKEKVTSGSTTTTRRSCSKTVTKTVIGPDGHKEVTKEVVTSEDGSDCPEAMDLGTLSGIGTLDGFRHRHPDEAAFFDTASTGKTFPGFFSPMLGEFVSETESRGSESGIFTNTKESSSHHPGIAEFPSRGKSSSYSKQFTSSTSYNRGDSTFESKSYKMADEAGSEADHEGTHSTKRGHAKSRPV
T2 sequence (looked up) 2: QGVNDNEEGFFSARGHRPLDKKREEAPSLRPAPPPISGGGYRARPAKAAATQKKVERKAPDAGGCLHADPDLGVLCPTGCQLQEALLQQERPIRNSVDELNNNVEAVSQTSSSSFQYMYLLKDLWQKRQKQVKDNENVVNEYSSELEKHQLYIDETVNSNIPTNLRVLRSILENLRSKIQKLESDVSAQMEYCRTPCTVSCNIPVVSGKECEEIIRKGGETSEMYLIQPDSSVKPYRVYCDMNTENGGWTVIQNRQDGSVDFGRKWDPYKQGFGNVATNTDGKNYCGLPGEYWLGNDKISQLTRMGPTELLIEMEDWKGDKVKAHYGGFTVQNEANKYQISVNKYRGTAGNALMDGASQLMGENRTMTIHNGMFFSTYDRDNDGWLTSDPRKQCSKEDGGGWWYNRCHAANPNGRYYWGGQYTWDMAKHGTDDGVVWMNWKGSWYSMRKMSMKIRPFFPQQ
T2 sequence (looked up) 3: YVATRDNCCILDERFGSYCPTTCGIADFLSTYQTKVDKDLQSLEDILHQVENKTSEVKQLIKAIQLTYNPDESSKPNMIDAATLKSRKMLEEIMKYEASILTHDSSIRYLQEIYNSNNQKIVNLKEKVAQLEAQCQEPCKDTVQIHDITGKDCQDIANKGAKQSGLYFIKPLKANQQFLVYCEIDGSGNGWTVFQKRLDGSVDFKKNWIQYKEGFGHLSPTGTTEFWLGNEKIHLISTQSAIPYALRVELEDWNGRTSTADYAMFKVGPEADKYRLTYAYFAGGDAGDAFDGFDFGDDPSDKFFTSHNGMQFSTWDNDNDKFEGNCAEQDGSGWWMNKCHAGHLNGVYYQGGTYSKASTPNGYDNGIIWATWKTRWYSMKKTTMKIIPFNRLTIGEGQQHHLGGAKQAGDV
Assay: ELISA on coated human fibrinogen; curve did not reach saturation
Procedure: as §1

**Q.** Which EC50 does the source give for B1 here?
**A.** ~2.2 µM

**Q.** How did the EC50 turn out when B2 was run?
**A.** ~3.8 µM

**Q.** How did the EC50 turn out when B3 was run?
**A.** ~3.6 µM

**Q.** How did the EC50 turn out when B4 was run?
**A.** ~3.2 µM
